Biological target: the protein biologic (purified DNASE1-Fc enzyme biologic analysed by size-exclusion chromatography with light scattering) (not stated (murine and human isoforms were made)) (UniProt P49183)
Experiment: SEC-MALS; size-exclusion chromatography with light scattering; two separate concentrations of sample loading; single peak; hydrodynamic radius 5.3 nm

“the protein biologic (purified DNASE1-Fc enzyme biologic analysed by size-exclusion chromatography with light scattering) (from UniProt P49183 23-284) (Fc fusion)” was tested, and the stoichiometry N was 2.
